{"source": "patent US20030022355A1", "target": "fiber receptor (cellular receptor for wild-type adenoviral fiber protein)", "assay": "competition on A549 cells; labelled competitor GV10 UTV; soluble fiber at 0 to about 10 ug/ml", "data": [{"substance": "soluble wild-type fiber protein", "values": [{"measurement": "percent of GV10 UTV binding inhibited", "value": 40, "unit": "%"}]}]}
